By stoichiometry N is commonly meant the number of molecules, sites or subunits per partner or assembly.

For experiment [1], the target named is HTkC (TK1040), face-to-face (FtF) histone from Thermococcus kodakarensis (Thermococcus kodakarensis). As to the kind of experiment: SEC-MALS.
For experiment [2], the target named is HTkC R45A (Thermococcus kodakarensis). As to the kind of experiment: SEC-MALS.

Take “HTkC (TK1040), face-to-face (FtF) histone from Thermococcus kodakarensis (natural protein)”: the stoichiometry N in experiment [1] worked out at 4.
In experiment [2], HTkC R45A (natural protein) displayed a stoichiometry N of 2.

The record behind these values is article doi:10.64898/2025.12.06.692711.
